B1: TEKT4 (parent)
chain: YARYHQAFADRDQSERQRHESQQL
B2: TBX6 (parent)
chain: AFLELPHGSGGSGYPAAPPAVPFA

Variants of: B1
Assay: protein stability index of a GFP-peptide fusion (GPS, HEK-293T) (PSI 1-6); higher = more stable
Settings: c terminus: a fixed tail appended
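Note: lentivirally expressed fusions sorted by FACS into six bins by GFP to DsRed ratio, PSI derived from sequencing read proportions per bin multiplied by bin number.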

Variant | protein stability index
YARYHQAFADRDQSERQRHEYQQL [S21Y] | 1.29
YARYHQAFADRDQSERQRHEMQQL [S21M] | 1.65
YARYHQAFADRDQSERQRHEKQQL [S21K] | 1.46
YARYHQAFADRDQSERQRHEIQQL [S21I] | 2.41
YARYHQAFADRDQSERQRHEHQQL [S21H] | 1.99
YARYHQAFADRDQSERQRHETQQL [S21T] | 3.06
YARYHQAFADRDQSERQRHENQQL [S21N] | 1.98
YARYHQAFADRDQSERQRHEQQQL [S21Q] | 1.59
YARYHQAFADRDQSERQRHELQQL [S21L] | 1.83
YARYHQAFADRDQSERQRHEPQQL [S21P] | 2.39
YARYHQAFADRDQSERQRHERQQL [S21R] | 2.46
YARYHQAFADRDQSERQRHEVQQL [S21V] | 2.16
YARYHQAFADRDQSERQRHEWQQL [S21W] | 1.69
YARYHQAFADRDQSERQRHESQQF [L24F] | 2.37
YARYHQAFADRDQSERQRHESQQM [L24M] | 2.21
YARYHQAFADRDQSERQRHESQQT [L24T] | 2.15
YARYHQAFADRDQSERQRHESQQR [L24R] | 1.68
YARYHQAFADRDQSERQRHESQQH [L24H] | 2.42
YARYHQAFADRDQSERQRHESQQS [L24S] | 2.27
YARYHQAFADRDQSERQRHESQQN [L24N] | 2.23
YARYHQAFADRDQSERQRHESQQE [L24E] | 2.24
YARYHQAFADRDQSERQRHESQQI [L24I] | 2.03
YARYHQAFADRDQSERQRHESQQK [L24K] | 1.73
YARYHQAFADRDQSERQRHESQQP [L24P] | 1.64

Variant | protein stability index
YARYHQAFADRDQSERQRHESQQV [L24V] | 1.57
YARYHQAFADRDQSERQRHESQQQ [L24Q] | 2.57
YARYHQAFADRDQSERQRHESQQC [L24C] | 1.67
YARYHQAFADRDQSERQRHESQQG [L24G] | 2.37
YARYHQAFADRDQSERQRHESQQD [L24D] | 2.14
YARYHQAFADRDQSERQRHESQQY [L24Y] | 2.12
YARYHQAFADRDQSERQRHESQQA [L24A] | 1.88
YARYHQAFADRDQSERQRHESQQW [L24W] | 1.85
YARYHQAFADRDQSERQRHESDQL [Q22D] | 2.17
YARYHQAFADRDQSERQRHESTQL [Q22T] | 1.63
YARYHQAFADRDQSERQRHESSQL [Q22S] | 1.92
YARYHQAFADRDQSERQRHESWQL [Q22W] | 1.43
YARYHQAFADRDQSERQRHESYQL [Q22Y] | 1.65
YARYHQAFADRDQSERQRHESIQL [Q22I] | 1.66
YARYHQAFADRDQSERQRHESAQL [Q22A] | 1.8
YARYHQAFADRDQSERQRHESEQL [Q22E] | 2.25
YARYHQAFADRDQSERQRHESMQL [Q22M] | 2.2
YARYHQAFADRDQSERQRHESCQL [Q22C] | 1.57
YARYHQAFADRDQSERQRHESKQL [Q22K] | 2.17
YARYHQAFADRDQSERQRHESLQL [Q22L] | 1.82
YARYHQAFADRDQSERQRHESHQL [Q22H] | 2.36
YARYHQAFADRDQSERQRHESRQL [Q22R] | 1.85
YARYHQAFADRDQSERQRHESNQL [Q22N] | 2.1
YARYHQAFADRDQSERQRHESPQL [Q22P] | 2.17

Variant | protein stability index
YARYHQAFADRDQSERQRHESVQL [Q22V] | 1.79
YARYHQAFADRDQSERQRHESGQL [Q22G] | 1.85
YARYHQAFADRDQSERQRHESFQL [Q22F] | 1.9
YARYHQAFADRDQSERQRHESQAL [Q23A] | 1.84
YARYHQAFADRDQSERQRHESQTL [Q23T] | 1.85
YARYHQAFADRDQSERQRHESQRL [Q23R] | 2.65
YARYHQAFADRDQSERQRHESQNL [Q23N] | 1.91
YARYHQAFADRDQSERQRHESQPL [Q23P] | 1.92
YARYHQAFADRDQSERQRHESQHL [Q23H] | 2.34
YARYHQAFADRDQSERQRHESQML [Q23M] | 1.94
YARYHQAFADRDQSERQRHESQYL [Q23Y] | 2.19
YARYHQAFADRDQSERQRHESQDL [Q23D] | 2.37
YARYHQAFADRDQSERQRHESQFL [Q23F] | 1.44
YARYHQAFADRDQSERQRHESQSL [Q23S] | 2.41
YARYHQAFADRDQSERQRHESQIL [Q23I] | 1.66
YARYHQAFADRDQSERQRHESQLL [Q23L] | 2.63
YARYHQAFADRDQSERQRHESQKL [Q23K] | 3
YARYHQAFADRDQSERQRHESQGL [Q23G] | 2.01
YARYHQAFADRDQSERQRHESQVL [Q23V] | 1.68
YARYHQAFADRDQSERQRHESQCL [Q23C] | 2.11
YARYHQAFADRDQSERQRHESQEL [Q23E] | 1.97
YARYHQAFADRDQSERQRHESQWL [Q23W] | 1.7

Variants of: B2
Assay: as above
Settings: c terminus: a fixed tail appended

Variant | protein stability index
AFLERPHGSGGSGYPAAPPAVPFA [L5R] | 2.71
AFLEPPHGSGGSGYPAAPPAVPFA [L5P] | 3.17
AFLEYPHGSGGSGYPAAPPAVPFA [L5Y] | 2.39
AFLETPHGSGGSGYPAAPPAVPFA [L5T] | 2.61
AFLEEPHGSGGSGYPAAPPAVPFA [L5E] | 2.83
AFLECPHGSGGSGYPAAPPAVPFA [L5C] | 2.51
AFLENPHGSGGSGYPAAPPAVPFA [L5N] | 2.74
AFLEFPHGSGGSGYPAAPPAVPFA [L5F] | 2.29
AFLEIPHGSGGSGYPAAPPAVPFA [L5I] | 2.43
AFLEVPHGSGGSGYPAAPPAVPFA [L5V] | 2.59
AFLEWPHGSGGSGYPAAPPAVPFA [L5W] | 2.32
AFLEMPHGSGGSGYPAAPPAVPFA [L5M] | 2.69
AFLEHPHGSGGSGYPAAPPAVPFA [L5H] | 2.9
AFLEQPHGSGGSGYPAAPPAVPFA [L5Q] | 2.83
AFLESPHGSGGSGYPAAPPAVPFA [L5S] | 2.8
AFLEAPHGSGGSGYPAAPPAVPFA [L5A] | 2.79
AFLEGPHGSGGSGYPAAPPAVPFA [L5G] | 3.25
AFLEKPHGSGGSGYPAAPPAVPFA [L5K] | 2.59
AFLEDPHGSGGSGYPAAPPAVPFA [L5D] | 2.81
AFAELPHGSGGSGYPAAPPAVPFA [L3A] | 3.14
AFEELPHGSGGSGYPAAPPAVPFA [L3E] | 3.66
AFDELPHGSGGSGYPAAPPAVPFA [L3D] | 3.96
AFIELPHGSGGSGYPAAPPAVPFA [L3I] | 2.28
AFQELPHGSGGSGYPAAPPAVPFA [L3Q] | 3.43
